Test [1] concerns the target T1, collagen-binding, serum albumin-fused IL-4 variant (CBD-SA-IL-4) (UniProt P04275). As to the kind of experiment: SPR. Background: SPR reads the build-up and loss of mass on a sensor chip optically.
For test [2], the target named is T1, collagen-binding, serum albumin-fused …. As to the kind of experiment: ELISA. (In general: An ELISA detects its analyte on a solid surface through an enzyme-linked reagent.)

Our source for the koff and Kd values is PMC10495343 (2023).

B1: collagen III (natural protein)
chain: QYDSYDVKSGVAVGGLAGYPGPAGPPGPPGPPGTSGHPGSPGSPGYQGPPGEPGQAGPSGPPGPPGAIGPSGPAGKDGESGRPGRPGERGLPGPPGIKGPAGIPGFPGMKGHRGFDGRNGEKGETGAPGLKGENGLPGENGAPGPMGPRGAPGERGRPGLPGAAGARGNDGARGSDGQPGPPGPPGTAGFPGSPGAKGEVGPAGSPGSNGAPGQRGEPGPQGHAGAQGPPGPPGINGSPGGKGEMGPAGIPGAPGLMGARGPPGPAGANGAPGLRGGAGEPGKNGAKGEPGPRGERGEAGIPGVPGAKGEDGKDGSPGEPGANGLPGAAGERGAPGFRGPAGPNGIPGEKGPAGERGAPGPAGPRGAAGEPGRDGVPGGPGMRGMPGSPGGPGSDGKPGPPGSQGESGRPGPPGPSGPRGQPGVMGFPGPKGNDGAPGKNGERGGPGGPGPQGPPGKNGETGPQGPPGPTGPGGDKGDTGPPGPQGLQGLPGTGGPPGENGKPGEPGPKGDAGAPGAPGGKGDAGAPGERGPPGLAGAPGLRGGAGPPGPEGGKGAAGPPGPPGAAGTPGLQGMPGERGGLGSPGPKGDKGEPGGPGADGVPGKDGPRGPTGPIGPPGPAGQPGDKGEGGAPGLPGIAGPRGSPGERGETGPPGPAGFPGAPGQNGEPGGKGERGAPGEKGEGGPPGVAGPPGGSGPAGPPGPQGVKGERGSPGGPGAAGFPGARGLPGPPGSNGNPGPPGPSGSPGKDGPPGPAGNTGAPGSPGVSGPKGDAGQPGEKGSPGAQGPPGAPGPLGIAGITGARGLAGPPGMPGPRGSPGPQGVKGESGKPGANGLSGERGPPGPQGLPGLAGTAGEPGRDGNPGSDGLPGRDGSPGGKGDRGENGSPGAPGAPGHPGPPGPVGPAGKSGDRGESGPAGPAGAPGPAGSRGAPGPQGPRGDKGETGERGAAGIKGHRGFPGNPGAPGSPGPAGQQGAIGSPGPAGPRGPVGPSGPPGKDGTSGHPGPIGPPGPRGNRGERGSEGSPGHPGQPGPPGPPGAPGPCCGGVGAAAIAGIGGEKAGGFAPYYG
For orientation: koff means the rate constant with which the complex falls apart. Higher therefore signals a short-lived complex. In test [1], B1 gave a dissociation rate constant (koff) of 0.0056 s⁻¹.

B2: IL-4Rα-Fc (Fc fusion)
chain: IKVLGEPTCFSDYIRTSTCEWFLDSAVDCSSQLCLHYRLMFFEFSENLTCIPRNSASTVCVCHMEMNRPVQSDRYQMELWAEHRQLWQGSFSPSGNVKPLAPDNLTLHTNVSDEWLLTWNNLYPSNNLLYKDLISMVNISREDNPAEFIVYNVTYKEPRLSFPINILMSGVYYTARVRVRSQILTGTWSEWSPSITWYNHFQLPLIQR
The term Kd denotes the concentration at which binding is half-saturated. B2 gave a Kd in test [2] of 0.118 nM.
